Results taken from paper PMC11076521, “Structural basis for the intracellular regulation of ferritin degradation” (Nature Communications, 2024).

B1: NCOA4 ferritin-binding fragment (amino acids 383-522), His-tagged (domain or fragment, UniProt Q13772 383-522, looked up)
chain: SMVTEDWLVQNHQDPCKVEEVCRANEPCTSFAECVCDENCEKEALYKWLLKKEGKDKNGMPVEPKPEPEKHKDSLNMWLCPRKEVIEQTKAPKAMTPSRIADSFQVIKNSPLSEWLIRPPYKEGSPKEVPGTEDRAGKQK
notes: No tag cleavage is described; also called NCOA4^FB; NCOA4-383-522; source: E. coli T7 Lys, purified (HisTrap, PD10 desalting)
B2: C-terminally HA-FLAG-tagged NCOA4 (natural protein, UniProt Q13772 1-614, looked up)
chain: MNTFQDQSGSSSNREPLLRCSDARRDLELAIGGVLRAEQQIKDNLREVKAQIHSCISRHLECLRSREVWLYEQVDLIYQLKEETLQQQAQQLYSLLGQFNCLTHQLECTQNKDLANQVSVCLERLGSLTLKPEDSTVLLFEADTITLRQTITTFGSLKTIQIPEHLMAHASSANIGPFLEKRGCISMPEQKSASGIVAVPFSEWLLGSKPASGYQAPYIPSTDPQDWLTQKQTLENSQTSSRACNFFNNVGGNLKGLENWLLKSEKSSYQKCNSHSTTSSFSIEMEKVGDQELPDQDEMDLSDWLVTPQESHKLRKPENGSRETSEKFKLLFQSYNVNDWLVKTDSCTNCQGNQPKGVEIENLGNLKCLNDHLEAKKPLSTPSMVTEDWLVQNHQDPCKVEEVCRANEPCTSFAECVCDENCEKEALYKWLLKKEGKDKNGMPVEPKPEPEKHKDSLNMWLCPRKEVIEQTKAPKAMTPSRIADSFQVIKNSPLSEWLIRPPYKEGSPKEVPGTEDRAGKQKFKSPMNTSWCSFNTADWVLPGKKMGNLSQLSSGEDKWLLRKKAQEVLLNSPLQEEHNFPPDHYGLPAVCDLFACMQLKVDKEKWLYRTPLQM
notes: the discussion calls the NCOA4 of the cellular studies full-length; also called full-length NCOA4; source: HEK293T-FTH1 KO, transiently transfected, in lysate; HeLa-FTH1 KO, in lysate; not shown: HA, C-terminal, kept; FLAG, C-terminal, kept

What was measured:
FTH1-S114D (recombinant) = target: T1, FTH1-S114D (recombinant) (human, UniProt P02794 1-183, S114D); assay: ITC; 16 injections of 3 uL NCOA4 into the cell containing ferritin; 25.00 C; 100 mM MOPS, 100 mM NaCl, pH 7.4; one class of independent binding sites; conditions: both partners purified
T1 construct: ferritin heavy chain (FTH1), human, phosphomimetic mutant ordered from Twist Bioscience in pET-29b(+); source: E. coli BL21 (DE3), purified (heat treatment, HiTrap Q HP, ammonium sulfate)
T1 sequence (P02794 whole entry S114D): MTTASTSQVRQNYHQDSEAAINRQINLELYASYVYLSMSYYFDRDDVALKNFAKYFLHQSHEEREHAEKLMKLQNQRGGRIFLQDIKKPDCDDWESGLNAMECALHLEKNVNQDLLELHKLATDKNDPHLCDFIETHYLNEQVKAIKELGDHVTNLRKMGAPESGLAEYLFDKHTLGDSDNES

[1] = target: T2, FTL S19R, Q26Y, A86D, K106N (L2H mutant, recombinant) (UniProt P02792 1-175, S19R | Q26Y | A86D | K106N); assay: as above; conditions: both partners purified
T2 construct: ferritin light chain (FTL) with four residues of FTH1 brought into the cleft; mutant ordered from Twist Bioscience in pET-29b(+); also called FTL mutant L2H; source: E. coli BL21 (DE3), purified (heat treatment, HiTrap Q HP, ammonium sulfate)
T2 sequence (P02792 whole entry S19R/Q26Y/A86D/K106N): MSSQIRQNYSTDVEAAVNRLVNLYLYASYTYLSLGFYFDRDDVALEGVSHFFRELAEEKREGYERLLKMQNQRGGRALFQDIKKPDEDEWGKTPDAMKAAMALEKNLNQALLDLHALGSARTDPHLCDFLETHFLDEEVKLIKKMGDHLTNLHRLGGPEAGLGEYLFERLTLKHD

[2] = target: T3, human FTH1 wild type (recombinant ferritin nanocage) (human, UniProt P02794 1-183); assay: as above; conditions: both partners purified
T3 construct: ferritin heavy chain (FTH1), human; plasmid from Addgene #122652; Homopolymer cage; also called FTH1-WT; WT-FTH1; source: E. coli BL21 (DE3), purified (heat treatment, HiTrap Q HP, ammonium sulfate); copies: 24
T3 sequence (P02794 whole entry): as the sequence (P02794 whole entry S114D) above, with D114S counted along it

[3] = target: T4, N-terminally MYC-tagged FTH1-R23L (human, UniProt P02794 1-183, R23L); assay: co-IP; HEK293T-FTH1 KO cells, transient expression; anti-MYC agarose IP of MYC-FTH1, immunoblot; 50 mM Tris-HCl pH 7.5, 150 mM NaCl, 0.5% Nonidet P40, 1 mM DTT; quantified relative to FTH1-WT, normalized to immunoprecipitated FTH1; conditions: partners not purified
T4 construct: ferritin heavy chain (FTH1), NM_002032.3, mutant synthesized by Twist Bioscience in pTwist EF1 Alpha; source: HEK293T-FTH1 KO, transiently transfected, in lysate; not shown: MYC, N-terminal, kept
T4 sequence (P02794 whole entry R23L): as the sequence (P02794 whole entry S114D) above, with R23L, D114S counted along it

[4] = target: T5, N-terminally MYC-tagged FTH1-S114E (human, UniProt P02794 1-183, S114E); assay: as above; conditions: partners not purified
T5 construct: ferritin heavy chain (FTH1), NM_002032.3, phosphomimetic mutant synthesized by Twist Bioscience in pTwist EF1 Alpha; source: HEK293T-FTH1 KO, transiently transfected, in lysate; not shown: MYC, N-terminal, kept
T5 sequence (P02794 whole entry S114E): as the sequence (P02794 whole entry S114D) above, with D114E counted along it

[5] = target: T6, N-terminally MYC-tagged FTH1-R23A (human, UniProt P02794 1-183, R23A); assay: as above; conditions: partners not purified
T6 construct: ferritin heavy chain (FTH1), NM_002032.3, mutant synthesized by Twist Bioscience in pTwist EF1 Alpha; source: HEK293T-FTH1 KO, transiently transfected, in lysate; not shown: MYC, N-terminal, kept
T6 sequence (P02794 whole entry R23A): as the sequence (P02794 whole entry S114D) above, with R23A, D114S counted along it

[6] = target: T7, N-terminally MYC-tagged FTH1-S114D (human, UniProt P02794 1-183, S114D); assay: as above; conditions: partners not purified
T7 construct: ferritin heavy chain (FTH1), NM_002032.3, phosphomimetic mutant synthesized by Twist Bioscience in pTwist EF1 Alpha; source: HEK293T-FTH1 KO, transiently transfected, in lysate; not shown: MYC, N-terminal, kept
T7 sequence (P02794 whole entry S114D): as the sequence (P02794 whole entry S114D) above

[7] = target: T8, N-terminally MYC-tagged FTH1-R23I (human, UniProt P02794 1-183, R23I); assay: as above; conditions: partners not purified
T8 construct: ferritin heavy chain (FTH1), NM_002032.3, mutant synthesized by Twist Bioscience in pTwist EF1 Alpha; source: HEK293T-FTH1 KO, transiently transfected, in lysate; not shown: MYC, N-terminal, kept
T8 sequence (P02794 whole entry R23I): as the sequence (P02794 whole entry S114D) above, with R23I, D114S counted along it

[8] = target: T9, N-terminally MYC-tagged FTH1-N22A (human, UniProt P02794 1-183, N22A); assay: as above; conditions: partners not purified
T9 construct: ferritin heavy chain (FTH1), NM_002032.3, mutant synthesized by Twist Bioscience in pTwist EF1 Alpha; source: HEK293T-FTH1 KO, transiently transfected, in lysate; not shown: MYC, N-terminal, kept
T9 sequence (P02794 whole entry N22A): as the sequence (P02794 whole entry S114D) above, with N22A, D114S counted along it

[9] = target: T10, N-terminally MYC-tagged FTH1-A19Y (human, UniProt P02794 1-183, A19Y); assay: as above; conditions: partners not purified
T10 construct: ferritin heavy chain (FTH1), NM_002032.3, mutant synthesized by Twist Bioscience in pTwist EF1 Alpha; source: HEK293T-FTH1 KO, transiently transfected, in lysate; not shown: MYC, N-terminal, kept
T10 sequence (P02794 whole entry A19Y): as the sequence (P02794 whole entry S114D) above, with A19Y, D114S counted along it

| Binder | Kd (FTH1-S114D (recombinant)) [µM] | dH (FTH1-S114D (recombinant)) [kcal/mol] | stoichiometry N (FTH1-S114D (recombinant)) | Kd [1] [µM] | dH [1] [kcal/mol] | stoichiometry N [1] | Kd [2] [µM] | dH [2] [kcal/mol] | stoichiometry N [2] | relative interaction by immunoprecipitation (% of FTH1-WT) [3] [%] | relative interaction by immunoprecipitation (% of FTH1-WT) [4] [%] | relative interaction by immunoprecipitation (% of FTH1-WT) [5] [%] | relative interaction by immunoprecipitation (% of FTH1-WT) [6] [%] | relative interaction by immunoprecipitation (% of FTH1-WT) [7] [%] | relative interaction by immunoprecipitation (% of FTH1-WT) [8] [%] | relative interaction by immunoprecipitation (% of FTH1-WT) [9] [%] |
| --- | --- | --- | --- | --- | --- | --- | --- | --- | --- | --- | --- | --- | --- | --- | --- | --- |
| B1 | 3.5 | -4.66 | 3 | 5.6 | -5.26 | 1.9 | 2.4 | -5.5 | 2.5 | – | – | – | – | – | – | – |
| B2 | – | – | – | – | – | – | – | – | – | 86 | 113 | 5.35 | 111 | 13 | 3.72 | 8.86 |
